Experimental data reported in article PMC9432830 (Science Advances, 2022).
Like-named read-outs stand apart in the source and are kept apart here.

How the values were obtained:
[1] = biological target: ctMic60sol V455D/F461D (Chaetomium thermophilum); test: ITC
[2] = biological target: Chaetomium thermophilum Mic60 excluding the TM region (residues 208 to 691) (Chaetomium thermophilum); test: native gel or EMSA
[3] = biological target: Chaetomium thermophilum Mic60 excluding the TM region (residues 208 to 691) (Chaetomium thermophilum); test: native gel or EMSA; remark: listed apart in the source
[4] = biological target: ctMic60sol R525C (Chaetomium thermophilum); test: native gel or EMSA
[5] = biological target: ctMic60sol L676D (Chaetomium thermophilum); test: native gel or EMSA
crystal structure = biological target: the molecule itself; test: crystal structure

Chaetomium thermophilum Mic19 (natural protein)
fold reduction of affinity against ctMic60sol [1]: 30 fold

Chaetomium thermophilum Mic60 excluding the TM region (residues 208 to 691) (domain or fragment)
stoichiometry N [2]: 4 | stoichiometry N [3]: 2

ctMic60sol R525C (domain or fragment)
stoichiometry N [4]: 4

ctMic60sol L676D (domain or fragment)
stoichiometry N [5]: 2

B1: Mic60 coiled-coil domain from Lachancea thermotolerans (amino acids 207 to 382) (domain or fragment, UniProt C5E325 207-382, looked up)
chain: NEDIRTNVAESVAVQYGQASKDLHESFEIRAKSREVELTQQFLNEFNAFKAQLEKHSSEELASALKANEQALLAKQSNEVALLSMKQVEEFTKILSEKLDQERQGRLSKLEALNGSVQELAEAVDQVDTLVMKSEVLSQLSLLTTLLKNKLHAGDESSVKIDSELARLKTLCDILP
stoichiometry N (crystal structure): 4
